# Reference: patent US20040229310A1 (Genentech, published 2004)
# Assays:
# VEGF [1] = molecular target: T1, VEGF (UniProt P15692-4 27-191, limits assumed); experiment: BIAcore SPR, VEGF coupled to the chip, full-length antibody injected; Kd = koff/kon; original FR1 subgroup III sequence (pxVG11VNERK)
# T1 construct: Coupled covalently to the biosensor chip; also called VEGF antigen; VEGF (109)
# Method: (§1) The VEGF-binding affinities of full length antibodies produced in bacterial cells were calculated from association and disassociation rate constants measured using a BIAcore™-2000 surface plasmon resonance system (BIAcore, Inc., Piscataway, N.J.) as described in Chen et al, (1999) J. Mol. Bio. 293:865-881). A biosensor chip was activated for covalent coupling of VEGF using N-ethyl-N′-(3-dimethylaminopropyl)-carbo-dimide hydrochloride (EDC) and N-hydroxysuccinimid (NHS) according to the supplier's (BIAcore, Inc., Piscataway, N.J.) instructions. VEGF (109) or VEGF (165) was buffer-exchanged into 20 mM sodium acetate, pH 4.8 and diluted to approximately […] to achieve approximately 700-1400 response units (RU) of coupled protein. A solution of 1 M ethanolamine was injected as a blocking agent.
# (§2) For kinetics measurements, twofold serial dilutions of full length antibodies were injected in PBS/Tween buffer (0.05% Tween-20 in phosphate-buffered saline) at 25° C. or 37° C. at a flow rate of 10 μl/minute. Equilibrium dissociation constants, Kd values from SPR measurements were calculated as koff/kₒₙ.
# (§3) To determine if the FR1 subgroup substitutions had any effect on the binding affinity for VEGF antigen, an affinity assay was performed using the expressed antibodies obtained from bacterial cells.
# VEGF [2] = molecular target: T1, VEGF; experiment: BIAcore SPR, VEGF coupled to the chip, full-length antibody injected; Kd = koff/kon; subgroup I sequence substitution (pVKFR1-2)
# Method: as §1, §2, §3
# T1 sequence (P15692 other isoform, or with tags, fused parts or gaps limits assumed): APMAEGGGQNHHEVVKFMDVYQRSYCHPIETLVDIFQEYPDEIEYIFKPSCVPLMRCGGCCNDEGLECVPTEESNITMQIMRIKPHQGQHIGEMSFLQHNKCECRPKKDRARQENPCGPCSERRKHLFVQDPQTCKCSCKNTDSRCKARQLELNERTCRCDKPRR
Kd (VEGF [1]),Kd (VEGF [2]),Binder
0.12 nM,,"anti-VEGF antibody VNERK with heavy chain FR1 subgroup III sequence (plasmid pxVG11VNERK) (antibody, V domains shown, Full-length humanized antibody made in E. coli (aglycosylated); also called anti-VEGF (VNERK); xVEGF (VNERK)) VH: EVQLVESGGGLVQPGGSLRLSCAASGYTFTNYGINWVRQAPGKGLEWVGWINTYTGEPTYAADFKRRFTFSLDTSKSTAYLQMNSLRAEDTAVYYCAKYPHYYVNERKSHWYFDVWGQGTLVTVSS VL: DIQLTQSPSSLSASVGDRVTITCSASQDISNYLNWYQQKPGKAPKVLIYFTSSLHSGVPSRFSGSGSGTDFTLTISSLQPEDFATYYCQQYSTVPWTFGQGTKVEIKR"
,0.19 nM,"anti-VEGF antibody VNERK with heavy chain FR1 subgroup I consensus sequence (plasmid pVKFR1-2) (antibody, V domains shown, Full-length antibody made in E. coli; differs from VNERK (pxVG11VNERK) by 12 substitutions in heavy chain FR1 (subgroup III to subgroup I); also called pVKFR1-2 (FR1 = SGI); VNERK HCFR1=SGI) VH: QVQLVQSGAEVKKPGASVKVSCKASGYTFTNYGINWVRQAPGKGLEWVGWINTYTGEPTYAADFKRRFTFSLDTSKSTAYLQMNSLRAEDTAVYYCAKYPHYYVNERKSHWYFDVWGQGTLVTVSS VL: DIQLTQSPSSLSASVGDRVTITCSASQDISNYLNWYQQKPGKAPKVLIYFTSSLHSGVPSRFSGSGSGTDFTLTISSLQPEDFATYYCQQYSTVPWTFGQGTKVEIKR"
